Measurements: patent publication US20210269525A1
Each block holds one substance with its values, some of them ahead of it.

Legend:
[1] = target: human CD3e (T-cell surface glycoprotein CD3 epsilon chain) (human) (UniProt P07766); assay: flow cytometry, human PBMC, negative control of unstated make-up
[2] = target: monkey CD3e (Macaca fascicularis) on PBMC (Macaca fascicularis) (UniProt Q95LI5); assay: flow cytometry, Macaca fascicularis PBMC, negative control of unstated make-up
[3] = target: monkey CD3e (Macaca fascicularis) on PBMC (Macaca fascicularis) (UniProt Q95LI5); assay: flow cytometry, Macaca fascicularis PBMC, control sample (Table 2: 1:400), AF647-anti-hIgG
[4] = target: monkey CD3e (Macaca fascicularis) on PBMC (Macaca fascicularis) (UniProt Q95LI5); assay: flow cytometry, Macaca fascicularis PBMC, control sample (Table 2: 1:400), AF647-anti-mIgG
[5] = target: human CD3e (T-cell surface glycoprotein CD3 epsilon chain) (human) (UniProt P07766); assay: flow cytometry, human PBMC of subject 1 (PBMC human1#), negative control, AF647-anti-mIgG, PerCP anti-hTcRβ
[6] = target: human CD3e (T-cell surface glycoprotein CD3 epsilon chain) (human) (UniProt P07766); assay: flow cytometry, human PBMC of subject 2 (PBMC human2#), negative control, AF647-anti-mIgG, PerCP anti-hTcRβ

Chain of monkey CD3e (Macaca fascicularis) on PBMC (Macaca fascicularis) (Q95LI5 22-198 limits assumed): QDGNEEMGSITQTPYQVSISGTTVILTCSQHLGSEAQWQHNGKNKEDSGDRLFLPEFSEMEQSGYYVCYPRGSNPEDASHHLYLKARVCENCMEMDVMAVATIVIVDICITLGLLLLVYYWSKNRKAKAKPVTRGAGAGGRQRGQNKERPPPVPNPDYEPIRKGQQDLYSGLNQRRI

upper left quadrant, percent of cells AF647+ / hTcRβ-PerCP- [1]: 0.24%
upper left quadrant, percent of cells AF647+ / hTcRβ-PerCP- [2]: 0.162%
Substance: NC

FL4-H, SSC-H subset (percent of cells in the AF647-positive gate) [3]: 3.27%
Substance: hIgG (antibody)

FL4-H, SSC-H subset (percent of cells in the AF647-positive gate) [4]: 0.58%
Q1, percent of cells AF647+ / hTcRβ-PerCP- [5]: 0.00361%
Q2, percent of cells AF647+ / hTcRβ-PerCP+ [5]: 0.19%
Q1, percent of cells AF647+ / hTcRβ-PerCP- [6]: 0.0036%
Q2, percent of cells AF647+ / hTcRβ-PerCP+ [6]: 0.21%
Substance: mIgG (antibody)
